Experiment: yeast display, Sf9 membrane polyspecificity reagent, FACS + sequencing; frameworks hold sequencing errors
Procedure, shortened: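 Polyreactivity labels are assigned by the sorting gate from which each nanobody was recovered. The gates were low and high (top ~1%), set on anti-HA fluorescence for expression and streptavidin fluorescence for reagent binding. Before sorting, galactose-induced (36–48 hours) yeast display cells were stained for 1 hour at 4 °C with 10% biotinylated, detergent-solubilized Sf9 membrane reagent.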

Row | Sequence | polyreactivity (PSR sort gate)
1 | QVQLVESGGGLVQAGGSLRLSCAPSGNTFGRNAMGWYRQAPGKERELVAAISFSGSRTYYADSVKGRFTISRDNAKNTVYLQMSSLKPEDTAVYYCNKRGADWTGFFYYEYDYWGQGTQVTVSS | low polyreactivity
2 | QVQLVESGGGLVQAGGSLRLSCAASGSTFEDNTMGWYRQAPGKEREFVADISNIGGDTTYADSVKGRFTISRDNAKNTVYLQMNSLKPEDTAVYYCAAVKGHSQVLSYGYWGQGTQVTVSS | low polyreactivity
3 | QVQLVESGGGLVQAGGSLSLSCAASGSIFWYNAMGWYRQAPGKERELVAGITSGGDTNYADSVKGRFTISRDNAKNTFYLQMNSLKPEDTAVYYCNTPSGPGNVGYYRRKWYGYWGQGTQVSVSS | low polyreactivity
4 | QVQLVESGGGLVQAGGRLRLSCAASGRIFKRYAMGWYRQAPGKESELVAAISWRGGSTYYADSVKGRFTISRDNAKNTVYFQMNSLKPEDTAVYYCAAGYFSYRRYDYWGQGTQVTVSS | high polyreactivity
5 | QVQLVESGGGLVQAGGSLRLSCAASGRIFHYYMGWYRQAPGKERELVAVISSGDGTYYADSVKGRFTISRDNAKNTVYLQMNSLKPEDTAVYYCAADAPREYVDHYKYDDDYWGQGTQVNVSS | low polyreactivity
6 | QVQLVESGGGLVQAGGSLRLSCAASGSIFGRNAMGSSRQAPGKERELVAAITWSGDSTYYADSVKGRFTISRDNAKNTVYLLMNSLKPEDTAVYYCAAGTATDVASIGATKDYDYWGQGTQVTVSS | low polyreactivity
7 | QVQLEESGGGLVQAGGSLRLSCAASGRTFRRNAMGWYRQAPGKERELVADISNGDSTKYADSVKGRFTISRDNAKNTVYLQMHSLIPEDTAVYYCNAQRYRVVVYISHGWQTRNYWGQGTQVTVSS | low polyreactivity
8 | QVQLVESGGGLVQAGGSLRLSCAASGRTFGGNVRGWYRQAPGKERELVAAISYSGGSTHYADSVKGRFTISRDNAKNTVYLQMMSLIPEDTAVYYCNKPFPYYPDGPNGYDYWGQGTQVTVSS | low polyreactivity
9 | QVKLVESGGGLVQAGGSLRLSCAASGSTSRDNAMGWYRQAPGKERELVGAITVIDGTTYYADSVKGRFTISRDNAKNTVYLQMNSLKPEDTAVYYCAADTIWYEYYYWGQGTQVTLSS | low polyreactivity
10 | QVQLVESGGGLVQAGGSLRLSCAASGSIFWQNTMGWYRQAPGKERELVATISSGDSTYYADSVKGRFTISRDNAKNTVYLQMNSLKPEDTAVYYCNTTEHKYVSSFEYGYWGQGTQVTVSS | low polyreactivity
11 | QVQLVESGGGLVQAGGSLRLSCAASGSIFRNYAMGWYRQAPGKERELVAAISYRGGSTYYADSVKGRFTISRDNAKNTVYLQMNSLKPEDTAVYYCAARTRKAYYYWGQGTQVTVSS | high polyreactivity
12 | QVQLEESGGGLVQAGGSHRLSCPASGRTFYKNAMGWSRQAPRKERELVAAITSGGSTNYADSVKGRFSISRDNAKNSVYLQMNSLKSEDTAVYYCAAQQFPYYRSRFSYINKYDYWGQGTQVTVSS | high polyreactivity
13 | QVQLVESGGGLVQAGGSLRLSCAASGLIFGRNAMGWYRQAPGKERELVAAISYRGGSTYYADSVKGRFTISRDNAKNTVYLQMNSLKPEDTAVYYCNRVWYAWGTGYDYWGQGTQVTVSS | high polyreactivity
14 | LVQHVESGGGLVKAGGSLRLTCSASGITFARYAMGWYRQAPGNERELVAAISRSVGSTYADSVKGRFTTSRDNAKNTVYLKMNSLKPEDTAVYYCHARYKSRLYPRYDYWGQGTQVTVSS | high polyreactivity
15 | QVQLVDSGGGLVQAGGSLRLSCAASGRTYFWNAMGWYRQAPGKERELVAAITWSGGSTYYADSVKGRFTISRDNAKNTVYLQMNSLKPEDTAVYYCAAVVSDYVWRYEYWGQGTQVTVSS | low polyreactivity
16 | QVQLVESGGGLVQAGGSLRLSCAASGFIFRYYAMGWYRQAPGKERELVAAISGSGGGTYYADSVKGRFTISRDNAKNTVYLQMNSLIPEDTAVYYCAATWTQPQPGYYPYYYWGQGTQVTVSS | high polyreactivity
17 | QVQLVESGGGLVQAGGSLRLSCAASGSTSGIYAMGWYRQAPGKERELVARINSGGSTYYADSVKGRFTISRDNAKNTVYLQMNSLKPEDTAVYYCNRVPNKYGRPIDSRWRGDYWGQGTQVTVSS | low polyreactivity
18 | QVQLVESGGGLVQAGGSLRLSGAASGGTFSNYAMGWYRPAPGKEREVVAAIRWRGGNTYYADSVKGRFTISRDNAKNTVYLQMNSLKPEDTAVYYCAAQTHDYTRSVGTTAYDYWGQGTQVTVSS | low polyreactivity
19 | QVQLVESGGGLVQAGGSLRLSCAASGFIFACYAMAWYRQAPGKERELVATISSSGARTYYADSVKGRFTISRDNAKNTVYLQMNSLKPEDTAVYYCSAAGRYRPVSPYSGYNYWGQGTQVTVSS | high polyreactivity
20 | QVQLVESGGGLVQAGGRLRLSCAASGFTFYRYAMGWYRQAPGKVRQLVATISASGGSTYYADSVKGRFTISRDNAKNTVYLQMNSLKPEDTAVYYCAVRYKSWYGFNYWGQGTQVTVSS | high polyreactivity
21 | QVQLVESGGGLVQAGGSLRLSCAPSAGTFSPYDMGWSRQSPGKQRELVASITGSGGSTYFADSVKGRFTISRGNAKNTVYLQMNSLKPEDTAVYYCDAQGYWTYWPYLLRLYDYWGQGTQVTVSS | low polyreactivity
22 | QVQLVESGGGLVQAGGSLRLSCAASGITFAIYDMGWYRQAPGKERELVAVISGRGGSTYYADSVKGRFTISRDNAKNTVYLQMNSLKPEDTAVYYCAARGEASIFAGYDYWGQGTQVTVSS | low polyreactivity

Row | Sequence | polyreactivity (PSR sort gate)
23 | QVQLVESGGGLVQAGGSLRLSCAASGRTFKINAMGWYRQAPGKERELVAAIRRRGGSTYYADSVKGRFTISRDNAKNTVYLQMNSLKPEDTAVYYCAKTSWPYRVPSDSVAYDYWGQGTQVTVSS | low polyreactivity
24 | QVQLVESGGGLVQAGGSLRLSCAASGSTFARYAMGWYRQAPGKERELVAAISRSGSNTYYADSVKGRFTISRDNAKNTVYLQMNSLKPEDTAVYYCAAVQPGQRTVAYDYWGQGTLVTVSS | high polyreactivity
25 | QVQLVESGGGLVQAGGSLRLSCAASGFTFYYYPMGWYRQAPGKERELVAAITWRGGSTNYADSVKGRFTISRDNAKNTVYLLMISLKPEDTAVYYCAAVTYWFWPGMDYWGQGTQVTVSS | low polyreactivity
26 | QVQLVESGGGLVQAGGSLRLSCAASGSIFELNAMGWYRQAPGKERELVAAITSSGSSTYYADSVKGRFTISRDNAKNTVYLQMNSLKPEDTAVYYCFRPHDYWGQGTQVTVTS | low polyreactivity
27 | QVQLVESGGGLVQAGGSLRLSCAASGSIFPHNAMGWYRTAPGKDRELVAAISWRDVISYYADSVKGRFTISRDNAKNTVYLQMNSLKPEDTAVYYCAAELRVYGVDYEYWGQGTQVTVSS | high polyreactivity
28 | QVQLVESGGGLVQAGGSRRLSCAASGLIFVRYAMGWYRQAPGKERELVATISSRGASTYYADSVKGRFTISRDNAKNTVYFQMNSLKPEDTAVYYCNAGRLRRSYKPYDYWGQGTQVTVSS | high polyreactivity
29 | QVQLVESGGGLVQAGGSLRLSCAASGRIFRYYAMGWYRQAPGKERELVASISNGGGTYYADSVKGRFTISRDNAKNTVYLQMNSLKPEDTAVYYCNARKWSQYIVPLRDYWGQGTQVTVSS | high polyreactivity
30 | QVKLVESVGGLVQAGGSLRLTCAASGIIFPVYAMGRYRQAPGKERQLVSAITYSGDRTYYADSVKGRFTISSDNAKNTVYLQMHSLKPEDTAVYYCNARFGVWPYFYNEDDYWGQGTQVTVSS | low polyreactivity
31 | QVQLQESGGGLVQAGGSLRLSCAASGTISPLPAMGWYRQAPGKEREFVAGIDTGAITNYADSVKGRFTISRDNAKNTVYLQMNSLKPEDTAVYYCAVFPAAYDYDERYYTYWGQGTQVTVSS | low polyreactivity
32 | HVQLKESGGGLVQAGGSLRLSCAASGSIFKVVDMGLYRKAPAKEREFVANIGEGCNTYYADSVKGRFTISRDNAKNTVYLQMNSLKPEDTAVYFYAFVLGTSYRYTYWGQGTLVTVSS | low polyreactivity
33 | QVQLVESGGGLVQAGGSLRLSCAASGSIFPVYTMGWYRQAPGKEREFVATITISGAITYYADSVKGRFTISRDNAKNTVYLQMTSLKPEDTAVYYCNTGPMYFPANDYWGQGTQVTVSS | low polyreactivity
34 | QVQLVESGGGLVQAGGSLRLSCAASGSTFRGYVMGWYRQAPGKERELVAAITYSGGSTYYADSVKGRFTISRDNAKNTVYLQLNSLKPEDTAVYYGADEIYDSYYEDDYWGQGTQVTVSS | high polyreactivity
35 | QVQIVESVGGLVQAGGSLRLSCAASGSTFSGYAKGWYRQAPGKERELVAAISWRGVRTYYADSVKGRFTISRDNAKNTVYLQMNSLKPEDTAVYYCAAVRYIPKEFYWGQGTQVTVSS | high polyreactivity
36 | QVQLVESGGGLVQAGGSLRLSCAASGSTFAYYAMGWYRQAPGKERELVAAIDDTGSTNYADSVKGRFTISRDNAKYTVFLQMNSLKPEYTAVYYCNAQPDGTYDYWGQGTQVTVSS | low polyreactivity
37 | QVQLVESGGGLVQAGGSLRLSCAASGFTFVYYVMGWYRQAPGKEREKVAAINAGGGSTYYADSVKGRFTISRDNAKNTVYLQMHSLKPEDSAVYYCATRPRYYYFRYDYWGQGTQVTVSS | high polyreactivity
38 | QVQLEESGGGLVQAGGSLRLSCAASGRTFRLNVMGWYREAPGKQRELVAAISTRGGDTYYADSVKGRFTISLDNAKNTDYLQMNSLKPEDTALYYCAAEYTYVYDYWGQGTQVTLSS | high polyreactivity
39 | QVQLVESGGGLVQAGGSLRLSCAASGRIFGPYVMGWYRQAPGKERELVAAISTSGTSTYYADSVKGRFTISRDNAKNTVYLQMNSLKPEDTAVYYCAKRSGARHRLMDYWGQGTQVTVSS | low polyreactivity
40 | QVQLVESGGGLVQAGGSLRLSCAASGRTFGVNAMGWYRQAPGKERELVASISNKGSTYYADSVKGRFTISRDNAKNTVYLQMNSLKPEDTAVYYCAADEYWSWDGTRYGVHYYYWGQGTQVTVSS | low polyreactivity
41 | QVQLVESGGGVVQAGGSLRLSCAASGSPFGFYTMGGYRQAPGKERELVAAISWSTGRTYYADSVKGRFTISRDKAKNTVDLQMNSLKPEDTAVYYCAADYYWKLFHEPPAVYDYDYWGQGTQVTVSS | low polyreactivity
42 | QVQLVESGGGLVQAGGSLRLSCAASGRIFFHNAMGWYIQAPGKERELVATISWSGSSTYYADSVKGRFTISRDNAKNTVYLQMNSLKPEYTAVYYCNAVYGRFVVLRYDYWGQGTQVTVSS | high polyreactivity
43 | QVQLVESGGGLVQAGGSLRLSCAASGFIFRDNAMGWYRQAPGKERELVAAISERGGRTYYADSVKGRFTISRDNEKNTVYLQMISLKPEDTAVYYCAAEDIANFYYWGQGTQVTVSS | high polyreactivity

— the nanobody polyreactivity screen of Harvey et al. (2022)
